Assay results taken from patent US20250326824A1.
“And” between values parts separate entries of the source, which are not always exact repeats. Equal entries are not always repeated.

Key:
Assay in all cases: cell-based or functional assay
mHTTex1-72Q-eGFP (human) = mHTTex1-72Q-eGFP (human) (UniProt P42858)
[1] = biological target: human α-synuclein protein (human)
[2] = biological target: human α-synuclein-GFP (human)

UniProt P42858, sequence (P42858 other isoform, or with tags, fused parts or gaps): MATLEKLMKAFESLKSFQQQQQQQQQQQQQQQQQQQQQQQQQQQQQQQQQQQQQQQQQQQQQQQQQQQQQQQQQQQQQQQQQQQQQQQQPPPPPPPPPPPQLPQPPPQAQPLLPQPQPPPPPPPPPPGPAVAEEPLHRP

scFv-C4-hPEST gave a soluble mHTTex1-72Q-GFP by western blot (EM48/GAPDH, normalized to EV-CON) (% relative to control) (mHTTex1-72Q-eGFP (human)) of 75 to 100.

For scFv-C4-hPEST-E428A-E430A-E431A, the soluble mHTTex1-72Q-GFP by western blot (EM48/GAPDH, normalized to EV-CON) (mHTTex1-72Q-eGFP (human)) was 50 to 75 % of control.

Molecule scFv-C4-hPEST-T436A has a soluble mHTTex1-72Q-GFP by western blot (EM48/GAPDH, normalized to EV-CON) (% relative to control) (mHTTex1-72Q-eGFP (human)) of 75 to 100.

scFv-C4-hPEST-S440A was tested, and the soluble mHTTex1-72Q-GFP by western blot (EM48/GAPDH, normalized to EV-CON) (mHTTex1-72Q-eGFP (human)) was 25 % of control and 0 % of control.

In the case of scFv-C4-hPEST-E444A, the soluble mHTTex1-72Q-GFP by western blot (EM48/GAPDH, normalized to EV-CON) (mHTTex1-72Q-eGFP (human)) is reported as 50 to 75 % of control.

B1: SS-PEN-DB1-PEST (VHH)
VHH: MEFGLSWLFLVAILKGVQGRQIKIWFQNRRMKWKKSRAEVQLQASGGGFVQPGGSLRLSCAASGFTSWEDTMGWFRQAPGKEREFVSAISFDANDLSDTSVYYADSVKGRFTISRDNSKNTVYLQMNSLRAEDTATYYCAVASFEILLYGESLHIYWGQGTQVTVSSAAAYPYDVPDYANPDFPPEVEEQDASTLPVSCAWESGMKRHRAACASASINV
For B1, the reduction of endogenous synuclein by western blot, 3×SNCA cortical cultures given conditioned media [1] was 30%.

B2: SS-PEN-N77D-PEST (VHH)
VHH: MEFGLSWLFLVAILKGVQGRQIKIWFQNRRMKWKKSRQVQLVESGGGGLVQPGGSLRLSCVTPGGIFSDYAMGWYRQAPGKQRELVADITVSDTTRYSDPVKGRFTISRDNAKDMVYLQMNSLKPEDAAIYTCNAQKWEDRYGSSERYDYWGQGTQVTVSSAHHSEDPAAAYPYDVPDYNPDFPPEVEEQDASTLPVSCAWESGMKRHRAACASASINV
B2 was tested, and the reduction of endogenous synuclein by western blot, 3×SNCA cortical cultures given conditioned media [1] was 40%, the reduction of endogenous α-synuclein by western blot relative to SS-N77K-hP control, 3×SNCA cortical cultures [1] was 40% and the reduction of α-Syn˜eGFP by western blot, recipient ST14A cells given conditioned media [2] was 20%.

B3: SS-435b-N77D-hP (VHH)
VHH: VQLVESGGGGLVQPGGSLRLSCVTPGGIFSDYAMGWYRQAPGKQRELVADITVSDTTRYSDPVKGRFTISRDNAKDMVYLQMNSLKPEDAAIYTCNAQKWEDRYGSSERYDYWGQGTQVTVSS
For B3, the reduction of endogenous α-synuclein by western blot relative to SS-N77K-hP control, 3×SNCA cortical cultures [1] was 40%.
